Measurements reported in the Immune Epitope Database (IEDB).

Legend:
Test in all cases: IEDB peptide-MHC binding, purified MHC/competitive/radioactivity; filed as Kd, often an IC50 or EC50 that approximates it; ≥ and ≤ were set here for values at or beyond the usual limits of such assays
HLA-A*33:01 = target: HLA-A*33:01
HLA-A*31:01 = target: HLA-A*31:01
HLA-A*03:01 = target: HLA-A*03:01
HLA-A*11:01 = target: HLA-A*11:01
HLA-A*68:01 = target: HLA-A*68:01
[1] = source organism: Vaccinia virus WR
[2] = source organism: SARS coronavirus Tor2
[3] = source organism: Mammarenavirus whitewaterense
[4] = source organism: Lassa virus Josiah
[5] = source organism: Lymphocytic choriomeningitis virus (strain Armstrong)
[6] = source organism: Mammarenavirus juninense

| Sequence | Kd (HLA-A*33:01; [1]) | Kd (HLA-A*31:01; [1]) | Kd (HLA-A*03:01; [1]) | Kd (HLA-A*11:01; [1]) | Kd (HLA-A*68:01; [1]) | other results |
| --- | --- | --- | --- | --- | --- | --- |
| VLMHPDFCK | 1380 nM | 227 nM | 8.68 nM | 4.33 nM | 259 nM |  |
| WIKNLETYTR | 1130 nM | 361 nM | ≥ 40900 nM | 6310 nM | 38.1 nM |  |
| IIVAGFSGK | 805 nM | 689 nM | 9.1 nM | 25.4 nM | 1440 nM |  |
| FSAGAGVLDK | 350 nM | 575 nM | 452 nM | 225 nM | 15 nM |  |
| AAYFVGYLK |  |  |  |  |  | Kd (HLA-A*33:01; [2]): 5550 nM; Kd (HLA-A*31:01; [2]): 178 nM; Kd (HLA-A*03:01; [2]): 3.9 nM; Kd (HLA-A*11:01; [2]): 3.19 nM; Kd (HLA-A*68:01; [2]): 3.19 nM |
| YMVTDKTAY | ≥ 44300 nM | ≥ 47800 nM | ≥ 33700 nM | ≥ 26200 nM | ≥ 40900 nM |  |
| AATIQTPTK | 1260 nM | 137 nM | 4120 nM | 9.51 nM | 1670 nM |  |
| MLPESDLDK | ≥ 73200 nM | ≥ 36200 nM | 5640 nM | 2080 nM | 1240 nM |  |
| PVVAAIITR |  |  |  |  |  | Kd (HLA-A*33:01; [2]): 7790 nM; Kd (HLA-A*31:01; [2]): 1240 nM; Kd (HLA-A*03:01; [2]): 11200 nM; Kd (HLA-A*11:01; [2]): 1790 nM; Kd (HLA-A*68:01; [2]): 269 nM |
| KWMLISSELK |  |  |  |  |  | Kd (HLA-A*33:01; [3]): 10500 nM; Kd (HLA-A*31:01; [3]): 127 nM; Kd (HLA-A*03:01; [3]): 19.9 nM; Kd (HLA-A*11:01; [3]): 248 nM; Kd (HLA-A*68:01; [3]): 891 nM |
| FFVFIHMVR | 0.46 nM | 1.08 nM | 0.874 nM | 3780 nM | 0.0241 nM |  |
| LFDFVNEKY | ≥ 77700 nM | ≥ 30000 nM | ≥ 78000 nM | ≥ 48700 nM | ≥ 26100 nM |  |
| KCFANNQDER |  |  |  |  |  | Kd (HLA-A*33:01; [3]): ≥ 70000 nM; Kd (HLA-A*31:01; [3]): 6690 nM; Kd (HLA-A*03:01; [3]): ≥ 70000 nM; Kd (HLA-A*11:01; [3]): ≥ 60300 nM; Kd (HLA-A*68:01; [3]): 6890 nM |
| SVDIETAIR | 17500 nM | 1800 nM | ≥ 78000 nM | 53 nM | 187 nM |  |
| AIITPVVFY | ≥ 45500 nM | ≥ 10000 nM | 409 nM | 0.362 nM | 1470 nM |  |
| NTVVRDFENY | ≥ 21700 nM | ≥ 70000 nM | ≥ 39700 nM | 520 nM | 235 nM |  |
| STCMMCYKR |  |  |  |  |  | Kd (HLA-A*33:01; [2]): 24.5 nM; Kd (HLA-A*31:01; [2]): 5.01 nM; Kd (HLA-A*03:01; [2]): 2250 nM; Kd (HLA-A*11:01; [2]): 9.05 nM; Kd (HLA-A*68:01; [2]): 17.8 nM |

| Sequence | Kd (HLA-A*33:01; [1]) | Kd (HLA-A*31:01; [1]) | Kd (HLA-A*03:01; [1]) | Kd (HLA-A*11:01; [1]) | Kd (HLA-A*68:01; [1]) | other results |
| --- | --- | --- | --- | --- | --- | --- |
| SVVNARLRAK |  |  |  |  |  | Kd (HLA-A*33:01; [2]): ≥ 33700 nM; Kd (HLA-A*31:01; [2]): 1370 nM; Kd (HLA-A*03:01; [2]): 65.5 nM; Kd (HLA-A*11:01; [2]): 89.9 nM; Kd (HLA-A*68:01; [2]): 250 nM |
| ENAVWDQYK |  |  |  |  |  | Kd (HLA-A*33:01; [4]): 958 nM; Kd (HLA-A*31:01; [4]): ≥ 22500 nM; Kd (HLA-A*03:01; [4]): 12600 nM; Kd (HLA-A*11:01; [4]): 6640 nM; Kd (HLA-A*68:01; [4]): 42.9 nM |
| KFLELKRGIY | ≥ 70000 nM | 22.6 nM | 1240 nM | ≥ 69800 nM | 10900 nM |  |
| DVLEIINDK | 719 nM | ≥ 53300 nM | ≥ 53500 nM | 4580 nM | 720 nM |  |
| NIRLTDTEYR | 157 nM | 59 nM | ≥ 70100 nM | 17500 nM | 1.39 nM |  |
| QSQMLLIVLK |  |  |  |  |  | Kd (HLA-A*33:01; [2]): 11700 nM; Kd (HLA-A*31:01; [2]): 1410 nM; Kd (HLA-A*03:01; [2]): 1620 nM; Kd (HLA-A*11:01; [2]): 10.8 nM; Kd (HLA-A*68:01; [2]): 207 nM |
| STRHPSKLR |  |  |  |  |  | Kd (HLA-A*33:01; [2]): 246 nM; Kd (HLA-A*31:01; [2]): 9.74 nM; Kd (HLA-A*03:01; [2]): 440 nM; Kd (HLA-A*11:01; [2]): 3210 nM; Kd (HLA-A*68:01; [2]): 101 nM |
| TLVPVLEKK | 14000 nM | 332 nM | 237 nM | 15.9 nM | 117 nM |  |
| YSKFWYLEH |  |  |  |  |  | Kd (HLA-A*33:01; [5]): 12400 nM; Kd (HLA-A*31:01; [5]): 6010 nM; Kd (HLA-A*03:01; [5]): ≥ 78000 nM; Kd (HLA-A*11:01; [5]): ≥ 40900 nM; Kd (HLA-A*68:01; [5]): ≥ 77600 nM |
| DFSKSTSPTR | 1040 nM | 278 nM | 2720 nM | 4490 nM | 112 nM |  |
| RQLFKPLTKK |  |  |  |  |  | Kd (HLA-A*33:01; [2]): 3670 nM; Kd (HLA-A*31:01; [2]): 383 nM; Kd (HLA-A*03:01; [2]): 1.05 nM; Kd (HLA-A*11:01; [2]): 8.16 nM; Kd (HLA-A*68:01; [2]): 2130 nM |
| TAVAKCNLNH |  |  |  |  |  | Kd (HLA-A*33:01; [6]): 9990 nM; Kd (HLA-A*31:01; [6]): ≥ 70000 nM; Kd (HLA-A*03:01; [6]): ≥ 70000 nM; Kd (HLA-A*11:01; [6]): ≥ 69700 nM; Kd (HLA-A*68:01; [6]): ≥ 70100 nM |
| LLKYAGLTIK | 14500 nM | 1610 nM | 10.7 nM | 162 nM | 3150 nM |  |
| KMSTDNAVY | ≥ 77700 nM | 9730 nM | 43.4 nM | 182 nM | 11600 nM |  |
| SILDRIDTR | 113 nM | 71 nM | ≥ 78000 nM | 499 nM | 189 nM |  |
| DVFHLYLQY |  |  |  |  |  | Kd (HLA-A*33:01; [2]): 5450 nM; Kd (HLA-A*31:01; [2]): 4240 nM; Kd (HLA-A*03:01; [2]): 5470 nM; Kd (HLA-A*11:01; [2]): 10600 nM; Kd (HLA-A*68:01; [2]): 188 nM |
| IMLPESDLDK | ≥ 70000 nM | 489 nM | 609 nM | 393 nM | 1670 nM |  |
